Reference: paper PMC7858052, “Z-Ring-Associated Proteins Regulate Clustering of the Replication Terminus-Binding Protein ZapT in Caulobacter crescentus” (mBio, 2021)

Legend:
[1] = target: truncated variant of ZapT-His that lacks the C-terminal sensor domain (Caulobacter crescentus); test: SEC; Superdex 200 PC3.2/30; 25 mM Tris-HCl pH 7.5, 300 mM NaCl, 20% sucrose; 20 ul/min; fractions on SDS-15% PAGE, Coomassie; single proteins and mixtures (also His-ZauP + ZapT-His + ZapTΔC-His with ZapT-His as internal control)
[2] = target: the molecule itself; test: as above

Row | stoichiometry N [1] | Molecule | stoichiometry N [2]
1 | 2 | truncated variant of ZapT-His that lacks the C-terminal sensor domain (domain or fragment) | 
2 |  | ZapT with a C-terminal hexahistidine tag (natural protein, Caulobacter crescentus, UniProt A0A0H3C832 1-141, looked up, tagged protein printed as 21 kDa; the last residue of ZapT is printed as Gly141; also called ZapT-His; wild-type ZapT-His; source: E. coli, purified (procedure in Text S1); not shown: His6, C-terminal, kept) MAKGPNAFRTISEAAEELGVPQHVLRFWETKFSFIRPMKRAGGRRFYRPQDIAVLNGVRTLLHSEGLTIKGVQKLHRDHGLAHVIAAGLGSNGSASLEAEYDYAPRGKERPVGEETRDRLAFALADLTAIKSRLDGLLARG | 2
3 |  | ZapA with an N-terminal hexahistidine-MBP tag (natural protein, Caulobacter crescentus, UniProt A0A0H3CCW6 1-108, looked up, ZapA, Z-ring-associated protein of Caulobacter crescentus NA1000, locus CCNA_03356; tagged protein printed as 56 kDa; primers NhisMBP-zapA-fwd/rev run from the start codon to the stop codon; also called His-ZapA; source: E. coli, purified (procedure in Text S1); not shown: His6-MBP, N-terminal, kept) MAQVTIQVNGRPYMVGCEDGQEPHLTELARLFDRQVRQVSQDVGQLGETRLFLMGALLLADELSDMKLRLAHANAEIARMQQEGTKAEIAAIRALDAAAERIEKLATE | 4
4 |  | ZauP with an N-terminal hexahistidine-SUMO tag (natural protein, Caulobacter crescentus, UniProt A0A0H3CD23 1-127, looked up, ZauP, functional ZapB homolog of Caulobacter crescentus NA1000, locus CCNA_03357; tagged protein printed as 26 kDa; primers Nhis-SUMO-zapB-P3/P4 run from the start codon to the stop codon; also called His-ZauP; source: E. coli, purified (procedure in Text S1); not shown: His6-SUMO, N-terminal, kept) MIPADSTALDLAVRRLERAVSQLEQRLAAKAAETQRALAAAATSAVALPLAVTEPSLFDDDERARLVADLEAAREREKALEEAGEQASVALGRAIAEIRAALGDESVANDLHAPGDDDDLFEDSEEA | 6
